Biological target: MART-126-35/HLA-A2.1 tetramer (human)
Assay: equilibrium tetramer staining at 0.1-25 nM, flow cytometry, Scatchard plot (KD=1/slope)

Substance: MART-1 TCR native PBMC (T cells obtained by leukapheresis from the MART-1 TCR donor patient)
- Kd: 4 to 6 nM
